Changes are numbered by the printed parent chain. Read-outs that look alike come from different tables or passages of the source.
Assays:
[1] = molecular target: T1, hVEGF-A Q89A (human, UniProt P15692-4 34-135, Q89A); experiment: SPR
T1 construct: position probably counted on the mature protein
T1 sequence (looked up): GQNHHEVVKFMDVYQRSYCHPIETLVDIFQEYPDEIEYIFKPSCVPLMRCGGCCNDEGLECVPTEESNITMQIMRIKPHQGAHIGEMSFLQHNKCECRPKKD
Experimental: (§1) Depending on the format of the assay either a streptavidin sensor (SA) or a dextran-coated (CM5) sensor was utilized as described below.
(§2) Reaction was then quenched by addition of 10 molar excess of Glycine pH 8.0 and the sample was buffer exchanged into PBS using an Amicon 0.5 mL 3000 MWCO ultra-centrifugal filters (EMD Millipore). The biotinylation state of the protein was verified by LC-MS analysis. Biotinylated VEGF-A was then captured on the surface until a resonance unit (RU) signal of about ˜400. For immobilization of VEGF-A on CM5 sensor, the surface was first activated with a mixture of N-ethyl-N′-(3-dimethylaminopropyl)carbodiimide hydrochloride and N-hydroxysuccinimide (EDC/NHS) according to the supplier instructions. VEGF-A was then diluted into coupling buffer (0.1 M Acetate Buffer, pH 5.0) and injected until the signal reached about ˜400 RU followed by a wash with 1 M ethanolamine pH 8.0 to quench remaining activated sites.

[2] = molecular target: T2, hVEGF-A (human, UniProt P15692-4 27-191, limits assumed); experiment: SPR
T2 construct: also called human VEGF-A; WT
Experimental: as §1, §2

[3] = molecular target: T3, hVEGF-A Y21A (human, UniProt P15692-4 34-135, Y21A); experiment: SPR
T3 construct: position probably counted on the mature protein
T3 sequence (looked up): T1 sequence (looked up) with Y14A, A82Q
Experimental: as §1, §2

[4] = molecular target: T4, hVEGF-A K48A (human, UniProt P15692-4 34-135, K48A); experiment: SPR
T4 construct: position probably counted on the mature protein
T4 sequence (looked up): T1 sequence (looked up) with K41A, A82Q
Experimental: as §1, §2

[5] = molecular target: human VEGF-A 165 (human, UniProt P15692-4 27-191); experiment: SPR
Sequence of human VEGF-A 165 (P15692 other isoform, or with tags, fused parts or gaps limits assumed): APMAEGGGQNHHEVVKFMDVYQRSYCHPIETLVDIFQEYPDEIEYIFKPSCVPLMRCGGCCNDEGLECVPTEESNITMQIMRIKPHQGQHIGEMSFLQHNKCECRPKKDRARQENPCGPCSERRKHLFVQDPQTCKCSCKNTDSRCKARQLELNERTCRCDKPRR
Experimental: as §1, §2

[6] = molecular target: T5, rat VEGF-A (rat, UniProt P16612-2 27-190, limits assumed); experiment: SPR
T5 construct: also called rVEGF
T5 sequence (looked up): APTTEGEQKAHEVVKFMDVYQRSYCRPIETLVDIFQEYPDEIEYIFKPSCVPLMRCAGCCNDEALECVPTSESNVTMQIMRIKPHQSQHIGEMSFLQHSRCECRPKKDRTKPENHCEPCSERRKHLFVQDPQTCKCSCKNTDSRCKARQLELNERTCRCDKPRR
Experimental: as §1, §2

[7] = molecular target: T6, rabbit VEGF-A (rabbit, UniProt G1T1L9 1-398); experiment: SPR
T6 sequence: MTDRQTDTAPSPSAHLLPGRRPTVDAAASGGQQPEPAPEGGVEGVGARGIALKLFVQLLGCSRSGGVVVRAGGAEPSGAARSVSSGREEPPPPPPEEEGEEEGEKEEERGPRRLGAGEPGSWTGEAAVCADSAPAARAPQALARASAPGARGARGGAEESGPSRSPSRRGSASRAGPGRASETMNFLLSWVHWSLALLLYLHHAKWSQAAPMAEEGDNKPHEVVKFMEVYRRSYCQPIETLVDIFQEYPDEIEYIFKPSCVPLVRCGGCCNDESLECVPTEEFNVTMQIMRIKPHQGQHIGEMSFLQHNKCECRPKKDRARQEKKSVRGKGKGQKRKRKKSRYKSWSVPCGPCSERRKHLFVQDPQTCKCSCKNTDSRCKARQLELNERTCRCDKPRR
Experimental: as §1, §2

[8] = molecular target: T2, hVEGF-A; experiment: SPR; remark: listed apart in the source
Experimental: as §1, §2

[9] = molecular target: T2, hVEGF-A; experiment: cell-based or functional assay
[10] = molecular target: T7, hVEGF-A F17A/M81A (human, UniProt P15692-4 34-135, F17A; M81A); experiment: site-directed mutants, SPR; no numbers printed for this mutant
T7 construct: positions probably counted on the mature protein
T7 sequence (looked up): T1 sequence (looked up) with F10A, M74A, A82Q

[11] = molecular target: T8, VEGF-B (human, UniProt P49765-2 22-188, limits assumed); experiment: competition ELISA: VEGF-B coated, constant Flt-1 receptor, peptide titrated
T8 sequence (looked up): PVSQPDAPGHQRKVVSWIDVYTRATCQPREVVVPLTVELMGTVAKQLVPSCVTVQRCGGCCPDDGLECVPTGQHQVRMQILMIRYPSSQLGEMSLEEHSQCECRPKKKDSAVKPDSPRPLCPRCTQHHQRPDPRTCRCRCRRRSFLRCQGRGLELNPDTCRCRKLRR

[12] = molecular target: T9, VEGF-C (human, UniProt P49767 103-227, limits assumed); experiment: competition ELISA: VEGF-C coated, constant Flt-4 receptor, peptide titrated
T9 sequence (looked up): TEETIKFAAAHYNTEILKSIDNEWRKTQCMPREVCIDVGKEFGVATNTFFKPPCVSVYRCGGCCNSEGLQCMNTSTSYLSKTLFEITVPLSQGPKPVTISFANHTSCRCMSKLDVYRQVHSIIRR

[13] = molecular target: T10, hVEGF-A (8-109) (human, UniProt P15692 214-315); experiment: competition ELISA: VEGF-A (8-109) coated, constant KDR receptor, peptide titrated; blocked ligand: KDR
T10 sequence (looked up): T1 sequence (looked up) with A82Q
Experimental: Binding specificity of each peptide was established by competition ELISA. […] After blocking with block buffer (PBS with 0.5% BSA and 0.05% TWEEN®20) for 2 hours at room temperature, the receptor-Fc fusions or biotinylated receptors were serially diluted using assay buffer (PBS with 0.5% BSA and 0.05% TWEEN®20) and incubated for 1 hour at room temperature. […] Competition ELISA was conducted in an identical fashion as described above except after blocking, a mixture of serially diluted peptide containing a constant concentration of receptor-Fc fusion or biotinylated receptor (concentration of receptor was set to EC₆₀) was added and incubated for 1 hour. All recombinant human proteins and antibodies were purchased from R &D Systems (Minneapolis, Minn.).

B1: VEGF_CKP9.54.90 (designed binder)
chain: GCNIMLPFWGCGRDFECLAGCVCQYYQSCG
- Kd [1]: 8.8 nM
- Kd [2]: 0.37 nM
- Kd [3]: 3.5 nM
- Kd [4]: 0.19 nM
- Kd [5]: 0.89 nM
- Kd [6]: 0.9 nM
- Kd [7]: 1.14 nM
- Kd [8]: 0.4 nM
- Cellular IC50 [9]: 1.35 nM
- FOLD [..] [..] TO VARIANT 9.54.90 [9]: 1 fold
- binding result [10]: binds
- binding result [11]: no binding (tested: 5 µM)
- binding result [12]: no binding (tested: 5 µM)
- IC50 (read off the curve) [13]: ~20 nM

— US20200325187A1 (Genentech, published 2020)
